Values of other authors, collected in article PMC7343451.

Molecular target: SARS-CoV-2 spike RBD (Severe acute respiratory syndrome coronavirus 2) (UniProt P0DTC2)

hACE2 peptide 21-43 (from UniProt Q9BYF1)
Kd: 47 nM
